“And” between values parts separate entries of the source, which are not always exact repeats. Equal entries are not always repeated.
B1: TIP-TIP-IgG fusion protein (two copies of the TIP-1 PDZ domain fused to the hIgG constant region) (Fc fusion)
chain: QRVEIHKLRQGENLILGFSIGGGIDQDPSQNPFSEDKTDKGIYVTRVSEGGPAEIAGLQIGDKIMQVNGWDMTMVTHDQARKRLTKRSEEVVRLLVTRQSLQKQRVEIHKLRQGENLILGFSIGGGIDQDPSQNPFSEDKTDKGIYVTRVSEGGPAEIAGLQIGDKIMQVNGWDMTMVTHDQARKRLTKRSEEVVRLLVTRQSLQK
notes: domain: PDZ domain; not shown: hIgG constant region of the CD5gamma or PEAK10 vector

What follows are molecules tested against HPV E6 #16 PDZ ligand peptide (C-terminal peptide of the E6 protein of HPV 16) (HPV 16) (UniProt P03126) (assay: G assay ELISA, immobilised GST-PDZ, biotin peptide 10 uM).
Work on GST-INADL PDZ domain 3 yielded an Ave OD of 0.485 A450 nm and an OD S/N (ratio to GST-only well) of 1.86.
In the case of GST-KIAA1526 #126.1 PDZ domain 2, the Ave OD is reported as 0.463 A450 nm and the OD S/N (ratio to GST-only well) is reported as 1.87.
Work on GST-MAGI 1 PDZ domain 5 yielded an Ave OD of 0.541 A450 nm and an OD S/N (ratio to GST-only well) of 3.12.
With GST-NSP #268.2 PDZ domain 1 the Ave OD was 0.724 A450 nm and the OD S/N (ratio to GST-only well) was 2.58.
With GST-NeDLG PDZ domain 1 the Ave OD was 0.516 A450 nm and the OD S/N (ratio to GST-only well) was 1.98.
With GST-PDZ-73 PDZ domain 2 the Ave OD was 0.561 A450 nm and the OD S/N (ratio to GST-only well) was 1.95.
For GST-PDZK1 PDZ domain 3, the Ave OD was 0.5 A450 nm and the OD S/N (ratio to GST-only well) was 1.92.
In the case of GST-TAX IP 2 PDZ domain 1, the Ave OD is reported as 0.508 A450 nm and 0.478 A450 nm and the OD S/N (ratio to GST-only well) is reported as 2.37 and 2.48.

The molecules below were run against HPV16 E6 C-terminal PDZ ligand (PL) peptide, biotinylated (human papillomavirus type 16) (UniProt P03126) (assay: G assay ELISA; E6 PL peptide titrated on constant GST-PDZ).
With “GST-Magi3 PDZ domain 1 (from UniProt Q5TCQ9 18-106)” the EC50 was 310 nM.
GST-SAST2 PDZ domain 1 was tested, and the EC50 was 1200 nM.

What follows are molecules tested against T1, GST-HPV11E6 fusion protein (full length E6 of HPV11) (human papillomavirus 11, UniProt P04019 1-150) (assay: modified ELISA: GST-E6 coated at 5 ug/ml, TIP-TIP-IgG supernatant, anti-hIgG-HRP).
T1 construct: domain: full length protein
B1: no binding.

Each molecule was assayed against HPV16 E6 C-terminal PDZ ligand (PL) peptide, biotinylated (human papillomavirus type 16) (UniProt P03126) (assay: G assay ELISA; immobilised GST-PDZ, biotin-peptide 10 uM).
In the case of GST-AF6 PDZ domain 1, the Ave OD is reported as 0.444 A450 nm and the OD S/N (ratio vs GST only) is reported as 1.8.
GST-DLG-6 PDZ domain 1, clone #333.1 gave an Ave OD of 0.349 A450 nm and an OD S/N (ratio vs GST only) of 2.04.
With GST-Densin 180 PDZ domain 1 the Ave OD was 0.42 A450 nm and 0.35 A450 nm and the OD S/N (ratio vs GST only) was 1.96 and 1.82.
“GST-EZRIN Binding Protein 50 PDZ domain 1, clone #341.1” showed an Ave OD of 0.43 A450 nm and an OD S/N (ratio vs GST only) of 1.65.
In the case of GST-MAGI1 PDZ domain 5, the Ave OD is reported as 0.432 A450 nm and the OD S/N (ratio vs GST only) is reported as 1.77.
In the case of “GST-Magi2 PDZ domain 3 (from UniProt Q86UL8 774-865)”, the Ave OD is reported as 0.416 A450 nm and 0.359 A450 nm and the OD S/N (ratio vs GST only) is reported as 1.98 and 1.65.
Molecule GST-NSP PDZ domain 1, clone #42.5 has an Ave OD of 0.416 A450 nm and an OD S/N (ratio vs GST only) of 1.95.
GST-PAR3 PDZ domain 3, clone #278.1 showed an Ave OD of 0.352 A450 nm and an OD S/N (ratio vs GST only) of 1.8.

What follows are molecules tested against HPV16 E6 C-terminal PDZ ligand (PL) peptide, biotinylated (human papillomavirus type 16) (UniProt P03126) (assay: Matrix/G assay ELISA; E6 peptide titrated on GST-PDZ).
“GST-Magi3 PDZ domain 1 (from UniProt Q5TCQ9 18-106)” was tested, and the EC50 was 310 nM.
GST-SAST2 PDZ domain 1 showed an EC50 of 1200 nM.

Reference: US20070099199A1 (published 2007)
